Series [1] concerns the molecule itself. Kind of series: SEC-MALS; single purified proteins; Superdex 200 Increase 10/300 GL, SEC buffer (50 mM Tris-HCl pH 7.5, 100 mM NaCl, 10 mM MgCl2, 1 mM 2-mercaptoethanol) with 0.02% sodium azide, 0.5 mL/min; samples 5.7–7.1 µM; fractions analysed by SDS-PAGE and anti-His western blot. (In general: SEC sorts molecules by how far they enter the pores of the column.)

A further series addresses T1, Cdc24 (S. cerevisiae) (UniProt P11433).
T1 sequence: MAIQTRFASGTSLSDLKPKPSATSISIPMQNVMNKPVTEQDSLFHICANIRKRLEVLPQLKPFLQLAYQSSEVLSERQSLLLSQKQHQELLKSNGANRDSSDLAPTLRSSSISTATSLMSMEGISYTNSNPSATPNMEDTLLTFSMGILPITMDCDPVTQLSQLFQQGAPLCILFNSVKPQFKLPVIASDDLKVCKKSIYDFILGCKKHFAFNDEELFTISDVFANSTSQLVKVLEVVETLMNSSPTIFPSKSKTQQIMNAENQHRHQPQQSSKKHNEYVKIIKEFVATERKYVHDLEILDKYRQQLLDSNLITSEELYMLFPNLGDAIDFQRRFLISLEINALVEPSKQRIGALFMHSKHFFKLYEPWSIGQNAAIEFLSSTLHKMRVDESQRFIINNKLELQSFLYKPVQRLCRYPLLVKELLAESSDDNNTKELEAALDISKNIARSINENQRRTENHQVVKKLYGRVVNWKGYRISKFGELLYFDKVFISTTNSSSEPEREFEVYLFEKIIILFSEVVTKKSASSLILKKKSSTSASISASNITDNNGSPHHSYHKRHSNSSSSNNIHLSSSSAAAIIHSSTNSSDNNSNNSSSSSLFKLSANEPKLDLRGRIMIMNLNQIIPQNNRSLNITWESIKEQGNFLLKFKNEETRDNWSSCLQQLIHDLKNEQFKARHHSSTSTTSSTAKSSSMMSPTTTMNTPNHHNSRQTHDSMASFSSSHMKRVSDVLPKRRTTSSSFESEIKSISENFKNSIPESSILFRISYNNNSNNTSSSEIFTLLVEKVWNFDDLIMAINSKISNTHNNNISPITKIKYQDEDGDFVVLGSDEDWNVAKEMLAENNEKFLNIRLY

Series [2] concerns the target Cdc24-DH3 (incl. mutation L339A, E340A) (S. cerevisiae) (UniProt P11433).

B1: GAP domain (aa 797–981 from Rga2) (domain or fragment, S. cerevisiae, UniProt Q06407 797-981, looked up)
chain: EKSTVPIIIRCCIDRIEKDDIGLNMEGLYRKSGSQTLVEEIENEFAQNNSLHSDTLSPKLNALLNQDIHAVASVLKRYLRKLPDPVLSFSIYDALIDLVRNNQLIERLPLNNDKFLDSPQKVTIYEMVLKSLLEIFKILPVEHQEVLKVLAAHIGKVRRCSERNLMNLHNLSLVFAPSLIHDFDG
notes: Rga2 GAP domain, S. cerevisiae, aa 797–981 (Smith et al, 2002); plasmid pRV138; also called Rga2's GAP domain; pRV138; source: E. coli BL21 DE3 pLysS, purified (HisTrap Excel, SEC Sephacryl S-300)
In the case of B1, in series [1], the binding result is reported as “binds”.

B2: His-Rga2 (Rga2 tagged with an N-terminal 6His purification tag) (enzyme, S. cerevisiae, UniProt Q06407 1-1009, looked up)
chain: MSADPINDQSSLCVRCNKSIASSQVYELESKKWHDQCFTCYKCDKKLNADSDFLVLDIGTLICYDCSDKCTNCGDKIDDTAIILPSSNEAYCSNCFRCCRCSNRIKNLKYAKTKRGLCCMDCHEKLLRKKQLLLENQTKNSSKEDFPIKLPERSVKRPLSPTRINGKSDVSTNNTAISKNLVSSNEDQQLTPQVLVSQERDESSLNDNNDNDNSKDREETSSHARTVSIDDILNSTLEHDSNSIEEQSLVDNEDYINKMGEDVTYRLLKPQRANRDSIVVKDPRIPNSNSNANRFFSIYDKEETDKDDTDNKENEIIVNTPRNSTDKITSPLNSPMAVQMNEEVEPPHGLALTLSEATKENNKSSQGIQTSTSKSMNHVSPITRTDTVEMKTSTSSSTLRLSDNGSFSRPQTADNLLPHKKVAPSPNKKLSRSFSLKSKNFVHNLKSKTSEMLDPKHPHHSTSIQESDTHSGWGVSSTHTNIRKSKAKKNPVSRGQSDSTIYNTLPQHGNFTVPEFNHKKAQSSLGSISKKQNSNDTATNRRINGSFTSSSSGHHIAMFRTPPLESGPLFKRPSLSSESAHHRSSSLQTSRSTNALLEDDSTKVDATDESATSLEKDFYFTELTLRKLKLDVRELEGTKKKLLQDVENLRLAKERLLNDVDNLTREKDKQSASSRESLEQKENIATSITVKSPSSNSDRKGSISNASPKPRFWKIFSSAKDHQVGDLESQQRSPNSSSGGTTNIAQKEISSPKLIRVHDELPSPGKVPLSPSPKRLDYTPDGSHLYGSSLQARCAYEKSTVPIIIRCCIDRIEKDDIGLNMEGLYRKSGSQTLVEEIENEFAQNNSLHSDTLSPKLNALLNQDIHAVASVLKRYLRKLPDPVLSFSIYDALIDLVRNNQLIERLPLNNDKFLDSPQKVTIYEMVLKSLLEIFKILPVEHQEVLKVLAAHIGKVRRCSERNLMNLHNLSLVFAPSLIHDFDGEKDIVDMKERNYIVEFILGNYRDIFKQA
notes: plasmid pRV014; Found only as higher-order oligomers in SEC-MALS; also called Rga2(I); pRV014; source: E. coli BL21 DE3 pLysS, purified (HisTrap Excel, SEC Sephacryl S-300); not shown: His6, N-terminal, kept
In the case of B2, in the series with Cdc24 (S. cerevisiae), the interaction (synergy) rate k3,X1,X2 of Cdc42 GTPase cycling in Cdc42–Cdc24–Rga2 ((II)) mixtures (GTPase-Glo assay) turned out to be 51.7 µM^−4 h^−1 and the interaction (synergy) rate k3,X1,X2 of Cdc42 GTPase cycling in Cdc42–Cdc24–Rga2(I) mixtures (GTPase-Glo assay) worked out at 87 µM^−4 h^−1. In addition, the binding result in series [1] was “binds”.

B3: Cdc24-DH3 (incl. mutation L339A, E340A) (enzyme)
chain: MAIQTRFASGTSLSDLKPKPSATSISIPMQNVMNKPVTEQDSLFHICANIRKRLEVLPQLKPFLQLAYQSSEVLSERQSLLLSQKQHQELLKSNGANRDSSDLAPTLRSSSISTATSLMSMEGISYTNSNPSATPNMEDTLLTFSMGILPITMDCDPVTQLSQLFQQGAPLCILFNSVKPQFKLPVIASDDLKVCKKSIYDFILGCKKHFAFNDEELFTISDVFANSTSQLVKVLEVVETLMNSSPTIFPSKSKTQQIMNAENQHRHQPQQSSKKHNEYVKIIKEFVATERKYVHDLEILDKYRQQLLDSNLITSEELYMLFPNLGDAIDFQRRFLISAAINALVEPSKQRIGALFMHSKHFFKLYEPWSIGQNAAIEFLSSTLHKMRVDESQRFIINNKLELQSFLYKPVQRLCRYPLLVKELLAESSDDNNTKELEAALDISKNIARSINENQRRTENHQVVKKLYGRVVNWKGYRISKFGELLYFDKVFISTTNSSSEPEREFEVYLFEKIIILFSEVVTKKSASSLILKKKSSTSASISASNITDNNGSPHHSYHKRHSNSSSSNNIHLSSSSAAAIIHSSTNSSDNNSNNSSSSSLFKLSANEPKLDLRGRIMIMNLNQIIPQNNRSLNITWESIKEQGNFLLKFKNEETRDNWSSCLQQLIHDLKNEQFKARHHSSTSTTSSTAKSSSMMSPTTTMNTPNHHNSRQTHDSMASFSSSHMKRVSDVLPKRRTTSSSFESEIKSISENFKNSIPESSILFRISYNNNSNNTSSSEIFTLLVEKVWNFDDLIMAINSKISNTHNNNISPITKIKYQDEDGDFVVLGSDEDWNVAKEMLAENNEKFLNIRLY
B3 registered a rate k3,Cdc24-DH3 of Cdc42 GTPase cycling (GTPase-Glo assay) in series [2] of 0.702 µM^−2 h^−1.

Source of the values: PMC13022455, “Oligomerization-dependent and synergistic regulation of Cdc42 GTPase cycling by a GEF and a GAP” (EMBO Reports, 2026).
